Here are results for eleven molecules from patent publication US20240166738A1 (priority 2021, published 2024).

The assay concerns the target GST-TMEM106B (truncated, comprising amino acids 122-210 of SEQ ID NO:1) (Homo sapiens, UniProt Q9NUM4). Put plainly: Pre-mix epitope binning of anti-TMEM106B antibodies (Carterra / Lake Pharma). The assay is classed as binding. Set-up: key to epitope bin: Bin 1: competes for binding to the same or overlapping TMEM106B region as the TM1, TM17, TM22, TM26, TM79, and/or TM82 antibodies; Bin 2: competes for binding to the same or overlapping TMEM106B region as the TM3, TM9, TM10, TM11, TM12, TM13, TM18, TM19, TM21, TM24, TM25, TM32, TM35, TM37, TM42, TM45, TM48, TM54, TM59, TM60, TM61, and/or TM76 antibodies; Bin 3: competes for binding to the same or overlapping TMEM106B region as the TM7, TM15, TM83, and/or TM84 antibodies; Bin 4: competes for binding to the same or overlapping TMEM106B region as the TMS, TM28, TM29, TM30, TM63, TM64, TM72, TM78, TM80, TM86, and/or TM88 antibodies; Bin 5: does not bind to a truncated TMEM106B comprising amino acids 122-210 of SEQ ID NO:1. To be noted: for epitope bin: competition for binding to truncated GST-TMEM106B (amino acids 122-210); for Binding Community/Bin: epitope bin number, pre-mix binning on truncated GST-TMEM106B. The method, then:
(§1) Monoclonal anti-TMEM106B antibodies were immobilized to a CMD 50M chip (Xantec # SPMXCMD5OM lot# SCCMD50M0416). The running buffer was HBS-EP+ with 1 mg/mL BSA. The GST-TMEM106B (truncated, comprising amino acids 122-210 of SEQ ID NO:1) antigen was prepared at a final concentration of 55 nM (corresponding to 2 μg/mL) and mixed with the competing analyte anti-TMEM106B antibodies at a final concentration of 333 nM (corresponding to 50 μg/mL) or compared to a buffer control. Samples were injected for 5 minutes over the array and regenerated after every cycle with 1 minute of two parts Pierce IgG-Elution buffer (ThermoFisher Cat#21004) and 1 part of 10 mM Glycine, pH 2.0 (Carterra).
Anti-TMEM106B antibodies sorted into various competing bins and resulting binning profiles. […] Antibodies within Bin 3 or Bin 4 partially block Bin 2 antibodies.
as §1, with “SPMXCMD50M” for “SPMXCMD5OM”, “lmg/ml” for “1 mg/mL”, “(truncated)” for “(truncated, comprising amino acids 122-210 of SEQ ID NO:1)”, “μg/ml)” for “μg/mL)”

Sequence of GST-TMEM106B (truncated, comprising amino acids 122-210 of SEQ ID NO:1) (Q9NUM4 122-210): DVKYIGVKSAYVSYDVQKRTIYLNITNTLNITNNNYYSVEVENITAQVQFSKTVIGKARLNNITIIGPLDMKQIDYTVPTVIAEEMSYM

B1: TM-17: anti-TMEM106B monoclonal antibody; CDR-H1-3 SEQ ID NO: 17, 51, 94; CDR-L1-3 SEQ ID NO: 132, 172, 196 (antibody, V domains shown)
VH: QVQLQQSGAELIRPGTSVKVSCKASGYAFTDYLIEWVKQRPGQGLEWIGVINPGSGGTNYNEKFKGKAKLTADKSSSTAYMQLSSLTSEDSAVYFCVRSSYGVYVAYPMDYWGQGTSVTVSS
VL: DIQMTQSPSSLSASLGERVSLTCRASQDIGSNLNWLQQEPDGTIKRLIYATSSLDSGVPKRFSGSRSGSDYSLTISSLESEDFVDYYCLQYASSPRTFGGGTKLEIK
Regarding B1, the epitope bin entry is on record as “Bin 1” and the “Binding Community/Bin” value turned out to be 1.

B2: TM-25: anti-TMEM106B monoclonal antibody; CDR-H1-3 SEQ ID NO: 10, 57, 100; CDR-L1-3 SEQ ID NO: 137, 168, 205 (antibody, V domains shown)
VH: EVQLVESGGDLVKPGGSLRLSCAASGFTFSGYGMSWIRQTPDKRLEWVATISSGGRYTVYPDSVKGRFTMSRDNVKNTLYLQMSSLKSEDTALYYCARDNFYSYAMDYWGLGTSVTVSA
VL: DIVMTQAAFSNPVTLGTSASISCRSSKSLLHSNGITYLFWYLQKPGQSPQLLIYQMSNLASGVPDRFSSSGSGTDFTLRISRVEAEDVGVYYCAQNLELWTFGGGTKLEIK
Consider B2, for which the epitope bin entry is listed as “Bin 2” and the “Binding Community/Bin” value was determined as 2.

B3: TM-1: anti-TMEM106B monoclonal antibody; CDR-H1-3 SEQ ID NO: 2, 35, 78; CDR-L1-3 SEQ ID NO: 120, 160, 184 (antibody, V domains shown)
VH: QVQLQQSGAELVRPGTSVKVSCKASGYAFTNYLIEWVKQRPGQGLEWIGVINPGSGGTKYNEKLKGKATLTADKSSSTAYMQLSSLTSVDSAVYFCARRGYTIYDFYAMDYWGQGTSVTVSS
VL: DVLMTQTPLSLPVSLGDHASISCRSSQSIVYNNGNTYLEWYLQKPGQSPKLLIYKVSNRFSGVPDRFSGSGSGTDFTLKISRVEAEDLGVYYCFQVSHVPFTFGSGTKLEIK
For B3, the epitope bin result is “Bin 1” and the “Binding Community/Bin” value came to 1.

B4: TM-32: anti-TMEM106B monoclonal antibody; CDR-H1-3 SEQ ID NO: 13, 63, 106; CDR-L1-3 SEQ ID NO: 145, 160, 200 (antibody, V domains shown)
VH: EVQLQQSGAELVRPGASVRLSCIASGFNIKDYYMYWVKQRPEQGLEWIGRIDPEDGDTEYVPKFQGKATMTADTSSNTAYLQLSSLTSEDIGVYYCTTRTWDLYYAVDNWGQGTSVTVSS
VL: DVLMTQTPLSLPVSLGDQASISCRSSQNIVHSNGNTYLEWYLQKPGQSPKLLIDKVSNRFSGVPDRFSGSGSGTDFTLKISRVEAEDLGIYYCFQGSHVPFTFGSGTKLEIK
As to B4, the epitope bin result is “Bin 2” and the “Binding Community/Bin” value was 2.

B5: TM-35: anti-TMEM106B monoclonal antibody; CDR-H1-3 SEQ ID NO: 24, 66, 109; CDR-L1-3 SEQ ID NO: 148, 160, 194 (antibody, V domains shown)
VH: QVQLQQSGPELVRPGTSVKISCKAPGYTFTRHWMQWVRQRPGQGLEWIGEILPGSNNIYYNEKVKGKATLTVDTSSSTSYMQLSSLTSEDSAVYFCARSLYDYDGVFAYWGQGTLVTVSA
VL: DVLMTQIPLSLPVSLGDQASISCRSSQSIVHRNGNTYLEWYLQKPGQSPKLLIYKVSNRFSGVPDRFSGSGSGTDFTLKISRVEAEDLGVYYCFQGSHVPYTFGGGTKLEIK
For B5, the epitope bin entry is recorded as “Bin 2” and the “Binding Community/Bin” value is 2.

B6: TM-48: anti-TMEM106B monoclonal antibody; CDR-H1-3 SEQ ID NO: 32, 74, 116; CDR-L1-3 SEQ ID NO: 155, 160, 218 (antibody, V domains shown)
VH: QVQLQQSGPELVKPGASVKLSCKASGYTFTSYDINWVKQRPGQGLEWIGWIYPRDGNTQYIEKLKGKATLTVDTSSSTAYMELHSLTSEDSAVYFCARWIFYAMDYWGQGTSVTVSS
VL: DVLMTQTPLSLPVSLGNQASISCRSSQSIVHGNGNTYLEWYLQKPGQSPKLLIYKVSNRFSGVPDRFSGSGSGTDFTLKISRVEAEDLGVYYCFQGSHLPYTFGGGTKLEIK
On to B6, for which the epitope bin entry is recorded as “Bin 2” and the “Binding Community/Bin” value is 2.

B7: TM-54: anti-TMEM106B monoclonal antibody; VH SEQ ID NO: 464, VL SEQ ID NO: 500 (antibody, V domains shown)
VH: QVQMQQSGPVLVKPGASVTLSCKASGYTFTTYDLNWVKQRPGQGLEWIGWIYPRGGSTEYNEKFKGKATLTVDTSSSTAYMELHSLTSEDSAVYFCAKYSIYAMDYWGQGTSVTVSS
VL: DVLMTQTPLSLPVSLGDQASISCRSSQSIVHGNGNTYLEWYLQKPGQSPKLLIYKVSNRFSGVPDRFSGSGSGTDFTLKISRVEAEDLGVYYCFQGSHVPWTFGGGTKLEMK
modifications: Variable Heavy Chain -- TM-54; Variable Light Chain -- TM-54
Turning to B7, the epitope bin result is reported as “Bin 2” and the “Binding Community/Bin” value is 2.

B8: TM-24: anti-TMEM106B monoclonal antibody; CDR-H1-3 SEQ ID NO: 12, 45, 88; CDR-L1-3 SEQ ID NO: 140, 170, 204 (antibody, V domains shown)
VH: QVQLKQSGPGQVQPSQSLSITCTVSGFSLSDYGVHWVRQSPGKGLEWLGVIWNNGNTDYNAAFISRLSINKDNSKSQVFFKMTSLQADDTAIYYCVRSLRPLHFDYWGQGTTVTVSS
VL: DIVMTQSPSSLTMSVGQKVTMNCKSSQSLLNSNNQQNYLAWYQQKPGQSPKLLVYFASIRESGVPDRFIGSGSGTDFTLTINSVQAEDLADYFCQQHYSTPFTFGSGTKLEIR
Take B8: the epitope bin result was “Bin 2” and the “Binding Community/Bin” value was 2.

B9: TM-26: anti-TMEM106B monoclonal antibody; CDR-H1-3 SEQ ID NO: 2, 56, 99; CDR-L1-3 SEQ ID NO: 139, 176, 203 (antibody, V domains shown)
VH: QVQLQQSGAELIRPGTSVKVSCKASGYAFTNYLIEWVKKRPGQGLEWIGVINPGSGITNYNEKFKGKATLTADKSSSTAYMQLSSLTSEDSAVYFCARSDFITTVVADYWGQGTTVTVSS
VL: DIVVTQTPLSLPVSFGDQVSISCRSSQSLTNYYGNTYLSWYLHKPGQSPQLLIYGISNRFSGVPDRFSGSGSGTDFTLKISTIKPEDLGMYYCLQGTHQPRTFGGGTKLEIK
On to B9, for which the epitope bin entry was “Bin 1” and the “Binding Community/Bin” value turned out to be 1.

B10: TM-82: anti-TMEM106B monoclonal antibody; VH SEQ ID NO: 487, VL SEQ ID NO: 522 (antibody, V domains shown)
VH: QVQLQQSGAELVRPGTSVRVSCKASGYAFTNYLIEWIKQRPGQGLEWIGVINPGSGITDYSEKFKGKARLTADKSSSTAYMQLSSLTSDDSAVYFCTRSPFITTVVADYWGQGTTVTVSS
VL: DVVVTQTPLSLPVSFGDQVSISCRSSQSLANTYGNTYLSWYLHTPGQSPQLLIFGISNRFSGVPDRFSGSGSGTDFTLKISTIKPEDLGVYYCLQGTHPPRTFGGGTKLEMK
modifications: Variable Heavy Chain -- TM-82; Variable Light Chain -- TM-82
With B10, the epitope bin result is on record as “Bin 1” and the “Binding Community/Bin” value came out at 1.

B11: TM-79: anti-TMEM106B monoclonal antibody; VH SEQ ID NO: 484, VL SEQ ID NO: 519 (antibody, V domains shown)
VH: EVQLQQSGPELVKPGASVKMSCKASGYTFTNYVMHWLKQKPGQGLEWIAHITPHNDGTKYNEKFKGKATLTSDRSSSTAYMELNSLTSEDSAIYYCARSGQFGRGDYFHYWGQGTTVTVSS
VL: DIVLTQSPASLAVSLGQRATISCRASKSVSTSGSIYIHWYQQKPGQPPKLLIYLTSNLESGVPARFSGSGSGTDFTLNIHPVEEEDAATYYCQHSGELPWTFGGGARLEIK
modifications: Variable Heavy Chain -- TM-79; Variable Light Chain -- TM-79
Consider B11, for which the epitope bin entry is given as “Bin 1” and the “Binding Community/Bin” value turned out to be 1.
